Patent US20210094998A1
One block for each substance: values may come before it.

Key:
Assay in all cases: cell-based or functional assay
[1] = target: human Y1 receptor (human) (UniProt P25929)
[2] = target: mouse Y2 receptor (mouse) (UniProt P97295)
rat Y2 receptor (rat) = target: rat Y2 receptor (rat)
[3] = target: rhesus monkey Y2 receptor (rhesus monkey) (UniProt Q9GK74)
CRHR1 = target: CRHR1
CRHR2 = target: CRHR2
[4] = target: cynomolgus monkey GLP1 receptor (cynomolgus monkey) (UniProt F8V479)
[5] = target: mouse GLP1 receptor (mouse) (UniProt O35659)
mouse GLP1 receptor (mouse), sequence (O35659 22-463): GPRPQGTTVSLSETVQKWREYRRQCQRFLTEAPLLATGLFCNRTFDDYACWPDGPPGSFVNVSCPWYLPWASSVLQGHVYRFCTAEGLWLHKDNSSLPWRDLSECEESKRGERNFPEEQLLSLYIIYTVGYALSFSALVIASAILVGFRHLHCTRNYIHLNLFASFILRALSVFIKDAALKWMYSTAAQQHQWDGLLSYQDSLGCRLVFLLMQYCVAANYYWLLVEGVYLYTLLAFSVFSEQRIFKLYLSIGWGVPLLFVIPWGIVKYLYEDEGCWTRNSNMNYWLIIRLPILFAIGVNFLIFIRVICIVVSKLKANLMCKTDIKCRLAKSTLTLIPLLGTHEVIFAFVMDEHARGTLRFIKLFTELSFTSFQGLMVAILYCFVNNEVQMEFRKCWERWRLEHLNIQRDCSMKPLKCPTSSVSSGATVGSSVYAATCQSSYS

[6] = target: rat glucagon receptor (rat) (UniProt P30082)
rat glucagon receptor (rat), sequence (P30082 27-485): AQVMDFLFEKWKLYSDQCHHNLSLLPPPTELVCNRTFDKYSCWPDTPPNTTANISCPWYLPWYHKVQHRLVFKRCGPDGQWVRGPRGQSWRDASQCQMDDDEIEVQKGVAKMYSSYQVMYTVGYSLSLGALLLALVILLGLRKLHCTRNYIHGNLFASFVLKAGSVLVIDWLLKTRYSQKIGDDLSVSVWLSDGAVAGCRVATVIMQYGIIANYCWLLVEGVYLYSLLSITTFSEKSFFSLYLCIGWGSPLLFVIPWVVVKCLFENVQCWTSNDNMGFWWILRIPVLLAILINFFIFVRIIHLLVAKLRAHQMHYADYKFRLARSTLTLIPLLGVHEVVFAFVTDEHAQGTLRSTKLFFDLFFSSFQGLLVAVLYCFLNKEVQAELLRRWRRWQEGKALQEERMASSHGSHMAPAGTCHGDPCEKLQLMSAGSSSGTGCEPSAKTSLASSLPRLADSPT

[7] = target: cynomolgus monkey glucagon receptor (cynomolgus monkey)
[8] = target: mouse glucagon receptor (mouse) (UniProt Q61606)
mouse glucagon receptor (mouse), sequence (Q61606 27-485): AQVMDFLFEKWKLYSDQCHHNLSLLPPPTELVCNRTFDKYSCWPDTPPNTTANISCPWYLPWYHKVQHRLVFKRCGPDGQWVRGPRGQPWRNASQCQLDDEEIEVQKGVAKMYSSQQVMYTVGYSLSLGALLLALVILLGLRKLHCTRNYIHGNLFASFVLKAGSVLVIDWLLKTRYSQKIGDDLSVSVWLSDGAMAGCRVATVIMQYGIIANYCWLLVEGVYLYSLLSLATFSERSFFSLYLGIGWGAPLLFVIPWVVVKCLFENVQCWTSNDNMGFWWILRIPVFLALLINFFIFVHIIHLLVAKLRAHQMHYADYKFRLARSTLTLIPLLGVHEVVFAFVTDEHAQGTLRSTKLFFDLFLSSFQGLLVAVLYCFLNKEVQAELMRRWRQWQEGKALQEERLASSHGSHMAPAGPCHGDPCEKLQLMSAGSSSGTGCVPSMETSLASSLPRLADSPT

[9] = target: human GLP1 receptor (human) (UniProt P43220)
human GLP1 receptor (human), sequence (P43220 24-463): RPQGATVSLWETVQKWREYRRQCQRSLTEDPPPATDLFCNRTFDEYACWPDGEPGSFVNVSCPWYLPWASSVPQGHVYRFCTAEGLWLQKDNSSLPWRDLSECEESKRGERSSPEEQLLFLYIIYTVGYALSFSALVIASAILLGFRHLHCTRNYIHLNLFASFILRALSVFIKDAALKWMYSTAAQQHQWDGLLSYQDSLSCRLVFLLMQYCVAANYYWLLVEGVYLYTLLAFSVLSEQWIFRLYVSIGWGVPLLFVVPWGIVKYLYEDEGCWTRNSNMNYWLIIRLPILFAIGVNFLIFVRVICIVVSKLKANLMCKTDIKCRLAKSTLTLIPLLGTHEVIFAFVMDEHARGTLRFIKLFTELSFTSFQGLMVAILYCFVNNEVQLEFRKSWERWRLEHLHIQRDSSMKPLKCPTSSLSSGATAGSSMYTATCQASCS

[10] = target: human glucagon receptor (human) (UniProt P47871)
human glucagon receptor (human), sequence (P47871 26-477): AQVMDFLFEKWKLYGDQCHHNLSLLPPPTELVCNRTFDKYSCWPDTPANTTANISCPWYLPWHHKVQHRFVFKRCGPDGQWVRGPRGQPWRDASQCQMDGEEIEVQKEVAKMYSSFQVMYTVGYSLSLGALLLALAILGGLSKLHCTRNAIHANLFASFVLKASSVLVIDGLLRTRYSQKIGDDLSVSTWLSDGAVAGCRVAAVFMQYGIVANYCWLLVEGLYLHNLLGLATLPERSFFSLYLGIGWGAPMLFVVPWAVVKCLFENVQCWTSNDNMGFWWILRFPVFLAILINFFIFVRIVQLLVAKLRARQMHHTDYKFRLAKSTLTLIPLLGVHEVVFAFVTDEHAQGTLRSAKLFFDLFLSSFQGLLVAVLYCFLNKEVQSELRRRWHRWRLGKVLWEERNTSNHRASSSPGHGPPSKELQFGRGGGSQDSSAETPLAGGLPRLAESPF

rhesus monkey Y2 receptor (rhesus monkey), sequence (Q9GK74 whole entry): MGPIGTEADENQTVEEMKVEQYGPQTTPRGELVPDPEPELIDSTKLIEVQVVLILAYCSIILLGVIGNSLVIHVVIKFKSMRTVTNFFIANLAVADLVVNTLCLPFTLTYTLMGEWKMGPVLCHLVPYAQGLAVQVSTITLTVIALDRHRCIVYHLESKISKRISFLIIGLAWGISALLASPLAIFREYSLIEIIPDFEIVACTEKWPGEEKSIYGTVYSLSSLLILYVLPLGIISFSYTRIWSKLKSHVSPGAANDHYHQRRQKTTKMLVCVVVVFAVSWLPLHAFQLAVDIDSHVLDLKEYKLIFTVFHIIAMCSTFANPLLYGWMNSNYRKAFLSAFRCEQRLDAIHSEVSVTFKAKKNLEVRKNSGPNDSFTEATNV
human Y1 receptor (human), sequence (P25929 whole entry): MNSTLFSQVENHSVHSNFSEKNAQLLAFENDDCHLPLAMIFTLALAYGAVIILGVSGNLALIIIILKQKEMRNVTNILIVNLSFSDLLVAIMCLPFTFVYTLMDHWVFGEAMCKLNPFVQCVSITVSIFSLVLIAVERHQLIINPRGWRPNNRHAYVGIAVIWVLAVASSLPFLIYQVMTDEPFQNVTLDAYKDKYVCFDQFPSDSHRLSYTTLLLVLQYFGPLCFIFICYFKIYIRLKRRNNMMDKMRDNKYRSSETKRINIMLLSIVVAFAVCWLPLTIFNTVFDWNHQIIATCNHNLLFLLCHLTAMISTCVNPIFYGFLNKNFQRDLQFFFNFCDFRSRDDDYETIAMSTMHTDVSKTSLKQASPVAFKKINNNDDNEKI
mouse Y2 receptor (mouse), sequence (P97295 whole entry): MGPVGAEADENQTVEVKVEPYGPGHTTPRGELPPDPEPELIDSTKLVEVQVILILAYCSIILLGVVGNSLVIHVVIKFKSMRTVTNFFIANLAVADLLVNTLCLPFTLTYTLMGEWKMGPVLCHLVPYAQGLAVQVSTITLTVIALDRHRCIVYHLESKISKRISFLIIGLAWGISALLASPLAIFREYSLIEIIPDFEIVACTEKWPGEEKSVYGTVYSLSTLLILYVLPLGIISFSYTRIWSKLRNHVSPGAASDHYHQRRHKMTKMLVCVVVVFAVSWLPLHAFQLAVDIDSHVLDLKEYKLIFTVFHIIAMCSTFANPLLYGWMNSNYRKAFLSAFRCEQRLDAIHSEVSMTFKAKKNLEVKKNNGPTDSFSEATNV

EC50, cAMP assay (LANCE) on receptor-expressing cells [1]: 66.4 nM
EC50, cAMP assay (LANCE) on receptor-expressing cells [2]: 0.03 nM
EC50, cAMP assay (LANCE) on receptor-expressing cells (rat Y2 receptor (rat)): 0.5 nM
EC50, cAMP assay (LANCE) on receptor-expressing cells [3]: 0.06 nM
Substance: PYY3-36 (peptide)

RC50, cAMP assay (CRHR1): 0.000308 µM
RC50, cAMP assay (CRHR2): 0.0034 µM
Substance: Sauvagine (from UniProt P01144 1-40) (peptide)

Max response, cAMP assay (CRHR1): 106%
Max response, cAMP assay (CRHR2): 107%
Substance: Sauvagine (from UniProt P01144 1-40) (peptide; unit assumed)

EC50, receptor cAMP assay [4]: 0.08 nM
EC50, receptor cAMP assay [5]: 0.06 nM
EC50, receptor cAMP assay [6]: > 100 nM
EC50, receptor cAMP assay [7]: > 100 nM
EC50, receptor cAMP assay [8]: > 100 nM
EC50, receptor cAMP assay [9]: 0.07 nM
EC50, receptor cAMP assay [10]: > 100 nM
Substance: Ser-8 GLP1 (peptide)
